In publication PMC8005859 (2021) one finds Kd data, which are given here for 1 molecule.

Values joined by “and” are separate entries in the source; they are usually repeats but may differ in a detail not shown here. Equal values may be shown once.

This assay has as its target SARS-CoV-2 S trimer (SARS-CoV-2, UniProt P0DTC2). Put plainly: SPR.

B1: P17 (antibody, V domains shown)
VH: QQLVESGGGVVQPGRSLRLSCAASGFTFSSYAMHWVRQAPGKGLEWVAVISYDGSNKYYADSVKGRFTISRDNSKNTLYLQMNSLRAEDTAVYYCARHATLMNNKDIWGQGTLVTVSS
VL: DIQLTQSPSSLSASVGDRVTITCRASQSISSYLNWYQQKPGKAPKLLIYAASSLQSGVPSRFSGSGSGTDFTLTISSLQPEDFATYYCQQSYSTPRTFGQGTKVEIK
Regarding B1, the equilibrium dissociation constant (Kd) (in general, the equilibrium constant for the complex coming apart) is 0.14 nM and 0.08 nM and 0.06 nM.
